The record followed here is the supplement of paper PMC12855868.

Sequences and labels used below:
B1: library; numbered along this chain (parent)
chain: MAAAGGARLLRAASAVLGGPAGRWLHHAGSRAGSSGLLRNRGPGGSAEASRSLSVSARARSSSEDKITVHFINRDGETLTTKGKVGDSLLDVVVENNLDIDGFGACEGTLACSTCHLIFEDHIYEKLDAITDEENDMLDLAYGLTDRSRLGCQICLTKSMDNMTVRVPETVADARQSIDVGKTS
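Further: variant abundance is its share of total variant reads in each endpoint sample, from next-generation sequencing of the integrated ORF PCR-amplified out of genomic DNA.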

This data set covers variants of B1. The data set is described as follows: scaled log2 fold change in cell abundance, elesclomol vs control (0 = silent mean, 1 = nonsense mean) (scaled log2 ratio); higher = higher viability under elesclomol (loss of FDX1 cuproptosis function). Particulars: with HEK293T FDX1 KO; elesclomol 40 nM; glucose 10 mM; 11 days.
MAAAGGARLLRAASAVLGGPAGRWLHHAGSRAGSSGLLRNRGPGGSAEASRSLSVSARARSSSEDKITVHFINRDGETLTTKGKVGDSLLDVVVENNLDIDGFGACEGTLACSTCHLIFEDHIYIKLDAITDEENDMLDLAYGLTDRSRLGCQICLTKSMDNMTVRVPETVADARQSIDVGKTS [E125I]: the “scaled log2 fold change” value was -0.618.
As to MAAAGGARLLRAASAVLGGPAGRWLHHAGSRAGSSGLLRNRGPGGSAEASRSLSVSARARSSSEDKITVHFINRDGETLTTKGKVGDHLLDVVVENNLDIDGFGACEGTLACSTCHLIFEDHIYEKLDAITDEENDMLDLAYGLTDRSRLGCQICLTKSMDNMTVRVPETVADARQSIDVGKTS [S88H], the “scaled log2 fold change” value is -0.0956.
Turning to MAAAGGARLLRAASAVLGGPAGRWLHHAGSRAGSSGLLRNRGPGGSAEASRSLSVSARARSSSEDKITVHFINRDGETLTTKGKVGDDLLDVVVENNLDIDGFGACEGTLACSTCHLIFEDHIYEKLDAITDEENDMLDLAYGLTDRSRLGCQICLTKSMDNMTVRVPETVADARQSIDVGKTS [S88D], the “scaled log2 fold change” value is 0.11.
Regarding MAAAGGARLLRAASAVLGGPAGRWLHHAGSRAGSSGLLRNRGPGGSAEASRSLSVSARARSSSEDKITVHFINRDGETLTTKGKVGDKLLDVVVENNLDIDGFGACEGTLACSTCHLIFEDHIYEKLDAITDEENDMLDLAYGLTDRSRLGCQICLTKSMDNMTVRVPETVADARQSIDVGKTS [S88K], the “scaled log2 fold change” value is -0.315.
Next, MAAAGGARLLRAASAVLGGPAGRWLHHAGSRAGSSGLLRNRGPGGSAEASRSLSVSARARSSSEDKITVHFINRDGETLTTKGKVGDPLLDVVVENNLDIDGFGACEGTLACSTCHLIFEDHIYEKLDAITDEENDMLDLAYGLTDRSRLGCQICLTKSMDNMTVRVPETVADARQSIDVGKTS [S88P]: -0.895; MAAAGGARLLRAASAVLGGPAGRWLHHAGSRAGSSGLLRNRGPGGSAEASRSLSVSARARSSSEDKITVHFINRDGETLTTKGKVGDMLLDVVVENNLDIDGFGACEGTLACSTCHLIFEDHIYEKLDAITDEENDMLDLAYGLTDRSRLGCQICLTKSMDNMTVRVPETVADARQSIDVGKTS [S88M]: 0.379.
Next, MAAAGGARLLRAASAVLGGPAGRWLHHAGSRAGSSGLLRNRGPGGSAEASRSLSVSARARSSSEDKITVHFINRDGETLTTKGKVGDSLLDVVVENNLDIDGFGACEGTLACSTCHLIFEDHIYEKLDAITDEENDMLDLAYGLTDRSRLGCQICLTKSMDNMTVRVGETVADARQSIDVGKTS [P168G]: -0.0258; MAAAGGARLLRAASAVLGGPAGRWLHHAGSRAGSSGLLRNRGPGGSAEASRSLSVSARARSSSEDKITVHFINRDGETLTTKGKVGDSLLDVVVENNLDIDGFGACEGTLACSTCHLIFEDHIYEKCDAITDEENDMLDLAYGLTDRSRLGCQICLTKSMDNMTVRVPETVADARQSIDVGKTS [L127C]: 0.0207.
Next, MAAAGGARLLRAASAVLGGPAGRWLHHAGSRAGSSGLLRNRGPGGSAEASRSLSVSARARSSSEDKITVHFINRDGETLTTKGKVGDSILDVVVENNLDIDGFGACEGTLACSTCHLIFEDHIYEKLDAITDEENDMLDLAYGLTDRSRLGCQICLTKSMDNMTVRVPETVADARQSIDVGKTS [L89I]: -0.0352.
In the case of MAAAGGARLLRAASAVLGGPAGRWLHHAGSRAGSSGLLRNRGPGGSAEASRSLSVSARARSSSEDKITVHFINRDGETLTTKGKVGDSLLDVVVENNLDIDGFGACEGTLACSTCHLIFEDHIYEKLDNITDEENDMLDLAYGLTDRSRLGCQICLTKSMDNMTVRVPETVADARQSIDVGKTS [A129N], the “scaled log2 fold change” value worked out at 0.865.
Consider MAAAGGARLLRAASAVLGGPAGRWLHHAGSRAGSSGLLRNRGPGGSAEASRSLSVSARARSSSEDKITVHFINRDGEALTTKGKVGDSLLDVVVENNLDIDGFGACEGTLACSTCHLIFEDHIYEKLDAITDEENDMLDLAYGLTDRSRLGCQICLTKSMDNMTVRVPETVADARQSIDVGKTS [T78A], for which the “scaled log2 fold change” value was -1.2.
Then MAAAGGARLLRAASAVLGGPAGRWLHHAGSRAGSSGLLRNRGPGGSAEASRSLSVSARARSSSEDKITVHFINRDGEFLTTKGKVGDSLLDVVVENNLDIDGFGACEGTLACSTCHLIFEDHIYEKLDAITDEENDMLDLAYGLTDRSRLGCQICLTKSMDNMTVRVPETVADARQSIDVGKTS [T78F], with -0.765.
On to MAAAGGARLLRAASAVLGGPAGRWLHHAGSRAGSSGLLRNRGPGGSAEASRSLSVSARARSSSEDKITVHFINRDGETLTTKGKVGDSLLDVVVENNLDIDGFGACEGTLACSTCHLIFEDHIYEKLDAITDEENDMLDLAYGLTDRSRLGCQICLTKSMDNMTVRVPETVAIARQSIDVGKTS [D173I], for which the “scaled log2 fold change” value was 0.102.
Then MAAAGGARLLRAASAVLGGPAGRWLHHAGSRAGSSGLLRNRGPGGSAEASRSLSVSARARSSSEDKITVHFINRDGETLTTKGKVGDSLLDVVVENNLDIDGFGACSGTLACSTCHLIFEDHIYEKLDAITDEENDMLDLAYGLTDRSRLGCQICLTKSMDNMTVRVPETVADARQSIDVGKTS [E107S], with -0.279; and MAAAGGARLLRAASAVLGGPAGRWLHHAGSRAGSSGLLRNRGPGGSAEASRSLSVSARARSSSEDKITVHFINRDGETLTTKGKVGDSLLDVVVENNLDIDGFGACEGTLACSTCHLIFEDHIYEKLDAITDEENDMLDLAYGLTDRSRLGCQICLWKSMDNMTVRVPETVADARQSIDVGKTS [T157W], with -0.456.
In the case of MAAAGGARLLRAASAVLGGPAGRWLHHAGSRAGSSGLLRNRGPGGSAEASRSLSVSARARSSSEDKITVHFINRDWETLTTKGKVGDSLLDVVVENNLDIDGFGACEGTLACSTCHLIFEDHIYEKLDAITDEENDMLDLAYGLTDRSRLGCQICLTKSMDNMTVRVPETVADARQSIDVGKTS [G76W], the “scaled log2 fold change” value was -0.575.
Next, MAAAGGARLLRAASAVLGGPAGRWLHHAGSRAGSSGLLRNRGPGGSAEASRSLSVSARARSSSEDKITVHFINRDGETLTTKGKVGDSLLDVVVENNLDIDGFGACEGTLACSTCHLIFEDHIYEKLDAITDEENDMLDLAYGLTDRSRLGCQICLTKSMDNMTVRVPETGADARQSIDVGKTS [V171G]: 0.349.
